Data taken from PMC8219380, “The discriminatory power of the T cell receptor” (eLife, 2021).
“And” between values parts separate entries of the source, which are not always exact repeats. Equal entries are not always repeated. Blank lines part the entries; values can stand above or below the molecule they belong to.

Legend:
[1] = molecular target: NY-ESO-1 (peptide variant NYE 5F) peptide on HLA-A*02:01 (human); experiment: SPR at 37°C, new method with Bmax constrained by the W6/32 standard curve; soluble, other
[2] = molecular target: NY-ESO-1 (NYE 9V: heteroclitic variant of the wild-type NYE-ESO 157–165 9C peptide) peptide on HLA-A*02:01 (human); experiment: SPR at 37°C (Biacore T200), soluble 1G4 injected over immobilised biotinylated pMHC; standard method with fitted Bmax; Figure 1A–C left column, which the legend names NYE 9V; soluble, other
[3] = molecular target: 1G4 TCR; experiment: SPR, 1G4 TCR binding to immobilised pMHC (steady state, 37°C); parameters: species or system human; conditions: Bmax fitted, read-out: KD (standard protocol)
[4] = molecular target: NYE 3A peptide on HLA-A*02:01; experiment: SPR
[5] = molecular target: NYE 3Y peptide on HLA-A*02:01; experiment: SPR
[6] = molecular target: NYE 4A peptide on HLA-A*02:01; experiment: SPR
[7] = molecular target: NYE 5F peptide on HLA-A*02:01; experiment: SPR
[8] = molecular target: NYE 5Y peptide on HLA-A*02:01; experiment: SPR
[9] = molecular target: NYE 6T peptide on HLA-A*02:01; experiment: SPR
[10] = molecular target: NYE 9V peptide on HLA-A*02:01; experiment: SPR
[11] = molecular target: NYE 9V peptide on HLA-A*02:01 (pMHC); experiment: SPR
[12] = molecular target: NYE 5F peptide on HLA-A*02:01; experiment: SPR; 37°C
[13] = molecular target: NYE 5F peptide on HLA-A*02:01; experiment: SPR; Bmax fitted, 37°C
[14] = molecular target: NYE 9V peptide on HLA-A*02:01; experiment: SPR; Bmax fitted, 37°C
[15] = molecular target: NYE 5F peptide on HLA-A*02:01; experiment: SPR; Bmax constrained, 37°C
[16] = molecular target: NYE 9V peptide on HLA-A*02:01; experiment: SPR; Bmax constrained, 37°C
[17] = molecular target: Tax 1A peptide on HLA-A*02:01 (human | HTLV-1); experiment: SPR
[18] = molecular target: Tax 1V peptide on HLA-A*02:01 (human | HTLV-1); experiment: SPR
[19] = molecular target: Tax 4A peptide on HLA-A*02:01 (human | HTLV-1); experiment: SPR
[20] = molecular target: Tax 4A8A peptide on HLA-A*02:01 (human | HTLV-1); experiment: SPR
[21] = molecular target: Tax 5F peptide on HLA-A*02:01 (human | HTLV-1); experiment: SPR
[22] = molecular target: Tax 5H peptide on HLA-A*02:01 (human | HTLV-1); experiment: SPR
[23] = molecular target: Tax 5H8A peptide on HLA-A*02:01 (human | HTLV-1); experiment: SPR
[24] = molecular target: Tax 5W peptide on HLA-A*02:01 (human | HTLV-1); experiment: SPR
[25] = molecular target: Tax 6V peptide on HLA-A*02:01 (human | HTLV-1); experiment: SPR
[26] = molecular target: Tax 7H peptide on HLA-A*02:01 (human | HTLV-1); experiment: SPR
[27] = molecular target: Tax 7R peptide on HLA-A*02:01 (human | HTLV-1); experiment: SPR
[28] = molecular target: Tax 7T peptide on HLA-A*02:01 (human | HTLV-1); experiment: SPR
[29] = molecular target: Tax 8A peptide on HLA-A*02:01 (human | HTLV-1); experiment: SPR
[30] = molecular target: Tax 8F peptide on HLA-A*02:01 (human | HTLV-1); experiment: SPR
[31] = molecular target: Tax 5F peptide on HLA-A*02:01 (human | HTLV-1); experiment: SPR; 37°C
[32] = tested on: CD8+ T cell blasts expressing 1G4 TCR; experiment: TCR downregulation (tetramer gMFI), plate-bound pMHC + ICAM1; type: cell-based, human
Excerpt: (§1) Figure 4. The T cell discriminatory power is enhanced by ligation of the receptors CD2 or LFA-1. (A) Protocol for stimulation of CD8^+ T cell blasts with plate-bound recombinant ligands. (B, C) Example dose-response curve for 1G4 T cell blasts stimulated with (B) peptides presented on major histocompatibility complex (pMHC) alone or (C) in combination with CD58 or ICAM1. (D, E) Potency derived from dose-response curves over KD showing the power function fit (D) with pMHC alone or (E) in combination with CD58 or ICAM1. (F) Comparison of the fitted discrimination power (α) and (G) fitted sensitivity ( C ). Shown are geometric means with each dot representing an independent experiment (n = 4–5). (F) In grey the result of a statistical test vs. 1 is shown (p=0.09 for pMHC, p=0.002 for CD58 and ICAM1, p=0.0002 for U87/1G4). Figure 4—source data 1. CD69 dose-response data for Figure 4. […]
(§2) For stimulation, T cells were counted, washed once to remove excess IL2, and 75,000 cells in 180–200 μl complete RMPI were dispensed per well. […] Cells were stained for flow cytometry and analysed immediately, or fixed and stored for up to 1 day. […]
(§3) Tetramers were produced in-house using refolded monomeric, biotinylated pMHC, and streptavidin-PE (Biolegend) at a 1:4 molar ratio. […] Samples were analysed using a BD X-20 flow cytometer, and data analysis was performed using FlowJo v10 (BD Biosciences).

[33] = tested on: CD8+ T cell blasts expressing 1G4 TCR; experiment: TCR downregulation (tetramer gMFI), plate-bound pMHC + CD58; type: cell-based, human
Excerpt: as §1, §2, §3

Kd [1]: 1310 µM
Kd [2]: 7 µM
Molecule: 1G4 TCR

Kd [3]: ~7 µM
Molecule: NY-ESO-1 peptide: cognate NY-ESO-1 peptide of the 1G4 TCR

Kd ([4]; Bmax constrained (new method)): 6.28 µM
Kd ([4]; Bmax fitted (standard method)): 7.04 µM
Kd ([5]; Bmax constrained (new method)): 47.3 µM
Kd ([5]; Bmax fitted (standard method)): 36.3 µM
Kd ([6]; Bmax constrained (new method)): 299 µM
Kd ([6]; Bmax fitted (standard method)): 157 µM
Kd [7]: 756 µM
Kd ([8]; Bmax constrained (new method)): 433 µM
Kd ([8]; Bmax fitted (standard method)): 191 µM
Kd ([9]; Bmax constrained (new method)): 162 µM
Kd ([9]; Bmax fitted (standard method)): 84.6 µM
Kd ([10]; Bmax constrained (new method)): 4.93 µM
Kd ([10]; Bmax fitted (standard method)): 7.97 µM
Kd [11]: 7 µM
Kd [12]: 1310 µM
Kd [13]: 198 µM
Kd [14]: 6.8 µM
Kd [15]: 1590 µM
Kd [16]: 4.6 µM
Molecule: soluble 1G4 αβ TCR

Molecule: soluble A6 αβ TCR
Kd [17]: 4.25 µM and 6.5 µM
Kd [18]: 6.92 µM and 7.97 µM
Kd [19]: 72.5 µM and 118 µM
Kd [20]: 194 µM and 1870 µM
Kd [21]: 3.36 µM and 2.67 µM
Kd [22]: 36.2 µM and 56.1 µM
Kd [23]: 2820 µM and 2320 µM
Kd [24]: 6.08 µM and 5 µM
Kd [25]: 13.5 µM and 21.1 µM
Kd [26]: 45.8 µM and 67.8 µM
Kd [27]: 11.5 µM and 21.4 µM
Kd [28]: 3.42 µM and 2.8 µM
Kd [29]: 599 µM and 565 µM
Kd [30]: 37.1 µM and 60 µM
Kd [31]: 3 µM

B1: ICAM1: human ICAM1 ECD, a ligand of LFA-1 (protein, UniProt P05362 28-480, looked up)
extracellular domain: QTSVSPSKVILPRGGSVLVTCSTSCDQPKLLGIETPLPKKELLLPGNNRKVYELSNVQEDSQPMCYSNCPDGQSTAKTFLTVYWTPERVELAPLPSWQPVGKNLTLRCQVEGGAPRANLTVVLLRGEKELKREPAVGEPAEVTTTVLVRRDHHGANFSCRTELDLRPQGLELFENTSAPYQLQTFVLPATPPQLVSPRVLEVDTQGTVVCSLDGLFPVSEAQVHLALGDQRLNPTVTYGNDSFSAKASVSVTAEDEGTQRLTCAVILGNQSQETLQTVTIYSFPAPNVILTKPEVSEGTEVTVKCEAHPRAKVTLNGVPAQPLGPRAQLLLKATPEDNGRSFSCSATLEVAGQLIHKNQTRELRVLYGPRLDERDCPGNWTWPENSQQTPMCQAWGNPLPELKCLKDGTFPLPIGESVTVTRDLEGTYLCRARSTQGEVTRKVTVNVLSPRYE
modifications: extracellular domain
TCR downregulation [32]: increased TCR downregulation

B2: CD58: soluble extracellular domain of human CD58, the ligand to CD2 (protein, UniProt P19256 29-215, looked up)
extracellular domain: FSQQIYGVVYGNVTFHVPSNVPLKEVLWKKQKDKVAELENSEFRAFSSFKNRVYLDTVSGSLTIYNLTSSDEDEYEMESPNITDTMKFFLYVLESLPSPTLTCALTNGSIEVQCMIPEHYNSHRGLIMYSWDCPMEQCKRNSTSIYFKMENDLPQKIQCTLSNPLFNTTSSIILTTCIPSSGHSRHR
modifications: extracellular domain
notes: soluble extracellular domain of human CD58, the ligand to CD2
TCR downregulation [33]: increased TCR downregulation
